# Measurements from US20250262210A1 (TRUSTEES OF COLUMBIA UNIVERSITY IN THE CITY OF NEW YORK, published 2025).
# B1: LZTR1-FLAG (other, human, UniProt Q8N653 1-840, looked up)
# chain: MAGPGSTGGQIGAAALAGGARSKVAPSVDFDHSCSDSVEYLTLNFGPFETVHRWRRLPPCDEFVGARRSKHTVVAYKDAIYVFGGDNGKTMLNDLLRFDVKDCSWCRAFTTGTPPAPRYHHSAVVYGSSMFVFGGYTGDIYSNSNLKNKNDLFEYKFATGQWTEWKIEGRLPVARSAHGATVYSDKLWIFAGYDGNARLNDMWTIGLQDRELTCWEEVAQSGEIPPSCCNFPVAVCRDKMFVFSGQSGAKITNNLFQFEFKDKTWTRIPTEHLLRGSPPPPQRRYGHTMVAFDRHLYVFGGAADNTLPNELHCYDVDFQTWEVVQPSSDSEVGGAEVPERACASEEVPTLTYEERVGFKKSRDVFGLDFGTTSAKQPTQPASELPSGRLFHAAAVISDAMYIFGGTVDNNIRSGEMYRFQFSCYPKCTLHEDYGRLWESRQFCDVEFVLGEKEECVQGHVAIVTARSRWLRRKITQARERLAQKLEQEAAPVPREAPGVAAGGARPPLLHVAIREAEARPFEVLMQFLYTDKIKYPRKGHVEDVLLIMDVYKLALSFQLCRLEQLCRQYIEASVDLQNVLVVCESAARLQLSQLKEHCLNFVVKESHFNQVIMMKEFERLSSPLIVEIVRRKQQPPPRTPLDQPVDIGTSLIQDMKAYLEGAGAEFCDITLLLDGHPRPAHKAILAARSSYFEAMFRSFMPEDGQVNISIGEMVPSRQAFESMLRYIYYGEVNMPPEDSLYLFAAPYYYGFYNNRLQAYCKQNLEMNVTVQNVLQILEAADKTQALDMKRHCLHIIVHQFTKVSKLPTLRSLSQQLLLDIIDSLASHISDKQCAELGADI
# notes: Expressed in HEK 293T, HeLa or U87 cells; used as cell lysate; also called LZTR1 wild type-FLAG; LZTR1 WT; not shown: FLAG tag at the C-terminus
# Experiments:
# [1] = biological target: T1, STK11IP (human, UniProt Q8N1F8 1-1088); test: IP/MS, LZTR1 wild type-FLAG, U87
# T1 sequence (looked up): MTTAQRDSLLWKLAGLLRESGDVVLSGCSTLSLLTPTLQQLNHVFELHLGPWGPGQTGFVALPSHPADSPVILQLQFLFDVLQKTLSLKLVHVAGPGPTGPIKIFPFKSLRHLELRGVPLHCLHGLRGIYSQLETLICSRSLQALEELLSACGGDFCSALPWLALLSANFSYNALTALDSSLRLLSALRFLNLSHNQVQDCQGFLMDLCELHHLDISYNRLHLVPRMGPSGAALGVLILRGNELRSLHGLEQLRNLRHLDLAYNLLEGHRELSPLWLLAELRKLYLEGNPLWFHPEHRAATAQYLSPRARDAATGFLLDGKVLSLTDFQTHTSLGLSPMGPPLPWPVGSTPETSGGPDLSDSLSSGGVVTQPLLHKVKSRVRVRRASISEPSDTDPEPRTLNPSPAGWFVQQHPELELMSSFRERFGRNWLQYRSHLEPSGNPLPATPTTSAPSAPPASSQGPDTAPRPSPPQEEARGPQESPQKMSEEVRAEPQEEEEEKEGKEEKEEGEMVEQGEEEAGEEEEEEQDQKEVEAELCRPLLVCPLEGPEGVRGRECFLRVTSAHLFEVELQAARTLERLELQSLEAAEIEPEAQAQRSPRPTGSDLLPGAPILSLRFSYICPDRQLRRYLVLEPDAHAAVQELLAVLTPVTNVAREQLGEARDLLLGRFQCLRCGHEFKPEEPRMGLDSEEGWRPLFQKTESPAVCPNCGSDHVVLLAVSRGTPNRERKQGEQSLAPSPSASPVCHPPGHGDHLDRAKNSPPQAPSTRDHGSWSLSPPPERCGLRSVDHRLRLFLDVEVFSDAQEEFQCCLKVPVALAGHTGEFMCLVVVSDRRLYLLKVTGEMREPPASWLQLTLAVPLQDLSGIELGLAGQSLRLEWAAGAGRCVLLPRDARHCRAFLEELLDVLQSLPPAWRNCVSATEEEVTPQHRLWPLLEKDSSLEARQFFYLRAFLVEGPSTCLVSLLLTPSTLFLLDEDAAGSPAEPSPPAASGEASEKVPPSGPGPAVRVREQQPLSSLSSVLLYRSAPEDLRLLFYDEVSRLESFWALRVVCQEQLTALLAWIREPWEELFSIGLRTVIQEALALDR
# In short: (§1)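 Extracted peptides in 3% acetonitrile/0.1% formic acid ran on a 50 cm C18 column into an Orbitrap Fusion, with MaxQuant identification and spectral counting.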
# [2] = biological target: T2, PARP10 (human, UniProt Q53GL7 1-1025); test: IP/MS, LZTR1 wild type-FLAG, U87
# T2 sequence (looked up): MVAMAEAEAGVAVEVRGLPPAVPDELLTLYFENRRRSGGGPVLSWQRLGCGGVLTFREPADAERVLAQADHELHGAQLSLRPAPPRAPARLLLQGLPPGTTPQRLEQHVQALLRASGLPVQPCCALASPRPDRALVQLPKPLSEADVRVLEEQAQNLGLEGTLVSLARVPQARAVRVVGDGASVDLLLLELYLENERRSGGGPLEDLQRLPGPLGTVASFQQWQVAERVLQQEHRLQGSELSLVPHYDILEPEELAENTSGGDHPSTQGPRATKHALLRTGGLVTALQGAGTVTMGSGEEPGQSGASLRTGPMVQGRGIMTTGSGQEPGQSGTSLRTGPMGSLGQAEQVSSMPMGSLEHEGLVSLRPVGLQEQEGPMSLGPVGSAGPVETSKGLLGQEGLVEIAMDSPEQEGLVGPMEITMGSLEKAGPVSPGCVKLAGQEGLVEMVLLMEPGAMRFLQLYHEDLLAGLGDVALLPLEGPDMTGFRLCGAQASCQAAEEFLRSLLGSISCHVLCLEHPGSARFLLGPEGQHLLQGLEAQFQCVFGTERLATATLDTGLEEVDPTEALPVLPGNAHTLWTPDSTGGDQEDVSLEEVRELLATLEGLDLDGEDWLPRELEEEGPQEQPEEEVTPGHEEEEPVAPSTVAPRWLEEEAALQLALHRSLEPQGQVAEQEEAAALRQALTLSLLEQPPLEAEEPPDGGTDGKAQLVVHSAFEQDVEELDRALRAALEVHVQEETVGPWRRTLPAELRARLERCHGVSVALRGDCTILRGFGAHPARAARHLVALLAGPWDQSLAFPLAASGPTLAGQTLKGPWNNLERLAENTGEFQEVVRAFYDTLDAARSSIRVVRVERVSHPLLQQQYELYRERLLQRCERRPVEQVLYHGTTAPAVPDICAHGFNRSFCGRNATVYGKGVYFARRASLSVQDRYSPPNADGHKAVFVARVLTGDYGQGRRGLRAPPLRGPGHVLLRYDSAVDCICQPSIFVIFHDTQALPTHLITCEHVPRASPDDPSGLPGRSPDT
# In short: as §1
binder,measurement,setting,value
B1,binding result,[1],binds
same,binding result,[2],binds
